# Laboratory results published in paper PMC5979038.
# Experiments:
# FtsZ-YFP-mts (E. coli) [1] = assay: single-molecule TIRF residence time; subunits labelled with GFP-Booster Atto647N in filaments on the bilayer, about 0.2 μM protein, with GTP, 5 mM free Mg2+ (high-density mesh)
# FtsZ-YFP-mts (E. coli) [2] = assay: AUC; sedimentation velocity, 7 μM protein, working buffer, 4 mM GTP and 5 mM Mg2+; monomers to higher-order species
# FtsZ-YFP-mts (E. coli) [3] = assay: single-molecule TIRF residence time; subunits labelled with GFP-Booster Atto647N in filaments on the bilayer, about 0.2 μM protein, 4 mM GTP, 1 mM free Mg2+ (dynamic rings); double exponential fit with photobleaching term
substance,measurement,setting,value
FtsZ-YFP-mts,mean residence time of single subunits within the filaments on the membrane,FtsZ-YFP-mts (E. coli) [1],15.1 s
same,percent of protein in higher-order species,FtsZ-YFP-mts (E. coli) [2],70%
same,mean residence time of single subunits within the filaments on the membrane,FtsZ-YFP-mts (E. coli) [3],11.5 s
